Experimental data from the DeepSol protein solubility set.

experiment: soluble on expression in E. coli; label from the status in PepcDB or PDB records

Row | Sequence | soluble on expression in E. coli
1 | MSAAEGAVVFSEEKEALVLKSWAIMKKDSANLGLRFFLKIFEIAPSARQMFPFLRDSDVPLETNPKLKTHAVSVFVMTCEAAAQLRKAGKITVRETTLKRLGGTHLKYGVADGHFEVTRFALLETIKEALPADMWGPEMRNAWGEAYDQLVAAIKQEMKPAE | soluble
2 | MGSDKIHHHHHHMANALGLDFGTTNTVLAQSIDETTTHSVQFTSMAGTTDSMRTALSFMKDAQLGARALKVEAGQAAIRQFIDNPGDCRFLQSIKTFAASALFQGTLVHARRFQFEDLMEVFLKRLETYAGDGWPATASRIVAGRPVHFAGASPDPELAMRRYNEALTRLGFPEIHYVYEPVAAAFYFAQHLTTDATVLVADFGGGTTDYSLIRFERKAGVLSAVPVGYSGVGLAGDQFDARIIEHLVAPEIGKGSQFKSFDKILDIPSNYYTSFSRWNQLSVFKSSKEFADLKQLVRQSLAPDKLELFIDLVEHDEGYPLYQAVSSTKMALSAADEAEFNFSPLGAAGRKTVKRQDFESWIADDLTRIESALDDVLTRTNTEAGAVDKVFLTGGTSFVPAVRRIFTERFSQDRIESGGEMVSIAHGLALIGDRDDIALWTA | not soluble
3 | MSLKYSSTTADYLQWSEAMNLIRKLARDSNYKMSLLIALGCFTGLRISDILALRWNQILDAEEFTIIEIKTGKQRTIRINMQLQQHIRDCYEHINPVGINAPVLISQKGTVYTVQRINVMLKEIKKKYKLQIGNFSCHSLRKTFGRQVYNMNSDNSELALVKLMELFNHSSVSITKRYLGLRQEELLNTYDCLSF | not soluble
4 | KQKGNYGEYLADDNLINNPKLKEAGYDLERIGGKVPTSPDDKITKGIDGIYINKNPNSNIKYVIDEAKFGKAGLSAKTRDGKQMSDSWLMGSRSRDNRILKALNNNEELADDILEALANNQVERILSKVDINGEVTTYRLDSEGNIIGLWP | soluble
5 | RDPIGYEKMFSKLRGGIVHARETAKRIAASPIVEQEGELCFTLYNAVGDSVLTSTGIIIHVGTMGSAIKYMVENNWEDNPGINDKDIFTNNDCAIGNVHPCDIMTLVPIFHDEKLIGWVGGVTHVIDTGSVTPGSMSTGQVQRFGDGYMITCRKTGANDESFKDWLHESQRSVRTPKYWILDERTRIAGCHMIRDLVMEVIKEDGIDSYMRFIDEVIEEGRRGLISRIKSMTIPGKYRKVAFVDVPYAHKDIGVCSEFAKLDTIMHSPVEITINKDATWKLDFDGASRWGWHSFNCNQVSFTSGIWVMMTQTLIPTSRINDGAYFATQFRLKKGTWMNPDDRRTGHAYAWHFLVSGWSALWRGLSQAYYSRGYLEEVNSGNANTSNWLQGGGINQDGEIHAVNSFETSSCGTGACAIKDGLNHAAAIWNPEGDMGDVEIWEMAEPLLYLGRNVKANTGGYGKYRGGNGFETLRMVWGAHDWTMFFMGNGYMNSDWGMMGGYPAASGYRFEAHNTDLKNRIKNNASLPLGGDFNPTDRDYEKHISHASQVKRDKQCITTENCFDNYDLYLNYIKGGPGFGDPIERDLNAILEDLNSKQL | not soluble
6 | MTKVALFSGGDLTYFTRDFDYFVGIDKGSSFLLKNQLPLDLAIGDFDSVSAEEFKQIKAKAKKLVMAPAEKNDTDTELALKTIFDCFGRVEIIVFGAFGGRIDHMLSNIFLPSDPDLAPFMRCFKLRDEQNLVEFFPAGQHQIEQATDMVYISFMAANGAHLSIQDAKYELTEENYFQKKIYSSNEFKDKPICFSVASGYVVVIQTKDRTLEHHHHHH | soluble
7 | MDDLTIEILTDDADYDLQRFDCGEEALNLFLTTHLVRQHRNKILRAYILCRNTPERQVLGYYTLCGSCFERAALPSKSKQKKIPYKNIPSVTLGRLAIDRSLQGQGWGATLVAHAMNVVWSASLAVGIHGLFVEALNEKAHTFYKSLGFIPLVGENENALFFPTKSIELLFTQSD | not soluble
8 | MRALPIADDVAGVIFALNGGDLGEDTGCVYYFAPDTLNWESLEVGYSEFLQWALSGDLDTFYENVRWQQWREDVIKLSATEAFTFYPFLWVQSEEARTRKVISLTELWEMQYQMKETFTQLEHHHHHH | not soluble
9 | MVWQREKLLQVNEIGYRDIDAGVPMQRDTLFRIASMTKPVTVAAAMSLVDEGKLALRDPITRWAPELCKVAVLDDAAGPLDRTHPARRAILIEDLLTHTSGLAYGFSVSGPISRAYQRLPFGQGPDVWLAALATLPLVHQPGDRVTYSHAIDVLGVIVSRIEDAPLYQIIDERVLGPAGMTDTGFYVSADAQRRAATMYRLDEQDRLRHDVMGPPHVTPPSFCNAGGGLWSTADDYLRFVRMLLGDGTVDGVRVLSPESVRLMRTDRLTDEQKRHSFLGAPFWVGRGFGLNLSVVTDPAKSRPLFGPGGLGTFSWPGAYGTWWQADPSADLILLYLIQHCPDLSVDAAAAVAGNPSLAKLRTAQPKFVRRTYRALGL | not soluble
10 | MGHHHHHHSHKGLIDEITKKNIQLKKEIQKLETELQEATKEFQIKEDIPETKMKFLSVETPENDSQLSNISCSFQVSSKVPYEIQKGQALITFEKEEVAQNVVSMSKHHVQIKDVNLEVTAKPVPLNSGVRFQVYVEVSKMKINVTEIPDTLREDQMRDKLELSFSKFRNGGGEVDRVDYDRQSGSAVITFVEIGVADKILKKKEYPLYINQTCHRVTVSPYTEIHLKKYQIFSGTSKRTVLLTGMEGIQMDEEIVEDLINIHFQRAKNGGGEVDVVKCSLGQPHIAYFEE | not soluble
11 | MEIIIVGGFLGSGKTTTLNHLITDALDHNLKTALIINEFGKMSVDSQLIHPTIPISEIVEGCICCAMKSNVSQQLHEIYLEHQPDLVFIECSGIAEPLAVVDACLTPVLAPITTIRSMLGIIDAKLYEKIETYPRDIQALFYEQLSYCSTLFVNKIDIADFNQVARLLRHLEVINRDANIQVGQWGELALNTLLNVKHLDAKQRGTLHHAINHQLIDTPRSQTKADFIERLTQLPQQVYRVKGFVRFTDSKLIHLVQYAEGEIELTPIQFKSDVPLYLVVIGKHLDAIELDLLEHHHHHH | not soluble
12 | MGTAAERWERAQMFFDAKDYAVAARILDGLVDEVPEQTGPRLLLARSYYHSAQLGRAEAELRILVERDPVEHYARLMLGRTLQRQGRDDEADSQLRIASALAGLEHHHHHH | not soluble
13 | MSSKEQKTPNEQVSEEMENTAEQQVEATQETGECVDPRVAELEVQLSDALQRERESLLRAKAEVENIRRRTELDVEKAHKFALERFSSELLPVIDNLERALDTADKTNTELISMIEGVELTLKSLLDAVGKFGIEVVGETHVPFNPEVHQAMTMLESADHEPNHVMMVMQKGYTLNGRLLRPAMVAVSKAKS | not soluble
14 | MSYLRALFFVLAMLATFGSMAGEPAHSDSGRDQVIRQILSDFWGNAKDVHGNAIQPASQEDRATVPISRAAAYRALEAGNLSGLAEWCGLDWEQHYLGLTEEARKMGMLDKQVAFFSVLHGAGQGAMVGSRSGQTCTAKQRTRIETLLLESQKEGLPSDALNGWQ | not soluble
15 | MGSDKIHHHHHHMFGYVLPLRGELKVKDYEKFKSYYCGLCLSIKKNYGNLPRSVLNYDMTFLAVLLDALEDKKCEFRLNRCIAHPYKKKYAIINNKALDYAAFFNICLVYYKLVDDVNDDKKISSKIKSLLLRGYFKKFPKPFYVYSDYIKSSLTELNKLEKKSNNLTLDEISHPFSDLTAFIISSYADNKPYKDILYNIGYNLGKWIYIMDAYDDLKEDIKLKKFNAINNTMNLDDKPYEDLIKDISPKISFVLSMCGSNCLHNLNLLPLKTNQDILFNILQYGLLDKMNNLNL | not soluble
16 | SESKKRELFSQIKDLKGTSGNVALLELGCGTGANFQFYPQGCKVTCVDPNPNFEKFLTKSMAENRHLQYERFIVAYGENMKQLADSSMDVVVCTLVLCSVQSPRKVLQEVQRVLRPGGLLFFWEHVAEPQGSRAFLWQRVLEPTWKHIGDGCHLTRETWKDIERAQFSEVQLEWQPPPFRWLPVGPHIMGKAVK | soluble
17 | MSLKKQRIVVKIGSSSLTNSKGSIDEAKIREHVQAISVLKKAGHEMILITSGAVAAGFSSLGYPSRPVTIKGKQAAAAVGQTLLMQQYMNQFKQYSLTPGQILLTRNDFSKRERYRNAYATIMELLERGVIPIINENDSTSVEELTFGDNDMLSALVSGLIHADQLMILTDINGLYDANPNENPEAKRFDYLPEITPELLGYAGSAGSKVGTGGMKSKLLATQTALSLGVKVFIGTGSGEQKLADILDGRGDGTYIGDKELSSVNNTRQWIQFHSPISGEIIIDAGAEEAMIHNGSSLLPAGVVGVNGSFPKGAVVEVRGPGGVIGKGQTHYSSEEIMEAKGKRSDELDFEKTFEVIHEGHHHHHH | soluble
18 | MGSDKIHHHHHHMSYSEKMLAALSNGQIDTAKKHFAWALRKDDDQTLYSLAEELYGLGFLKQAERTYKKLLAKYPDEDDLRTSLADIAIDEDDTDLALDYLQQVKPDSPAYVQALLVEADLYQTQELFEVSEQKLKEAYQLAPDEPVVEFALAEFYFLIRNYGQATRFYLDLIKQGQLEISKVNLVERLGVAYAESGRFEQAVGYLEQIKPAKLTPDSQFELGFTYLQLNEPQKAVDIFDKLREQDNQYASLYPYLAQAQEQLHQLDKALLTLQEGLAVDQYNEQLYLQTARLALKLDDQELAEKYLREGLSIDPDNLTTVLELSNLLVQRERYQDNIDLLDQYLQSNEFDPQFYWNLAISNDRLDHFQAAKDNYEAAYPFFEHNKDFLKPAIYFFREAGMADSAVAALRNYLTIEPDDGEMVAMLEDYEDQGY | not soluble
19 | SLGKILSKTAIAIVLASGLLSACTSTTDVFHNGYVMDDQSLQLIPEGSSREQVLLTMGTPSTTATFGNEVFYYISQKRVRRAAFLKPSLVEQNILAIYFNKDGVIERKANYTLQDGKVFDSISRTTPTGGKDLTFLQQLLSGGTSGANIAKS | soluble
20 | MTITQKGDHHSILAKLRHRNIILAKLEKAYKIPSSNIKNIWTQLNEKIEHTIADFIRLLAKQMFINRYLKSCIRISKAEKKRDTVSLVHHLFYNNAA | not soluble
21 | MGLLVLGTPLDWPESKKYCDYVRENGIMQFLHMYDTYISKKQDVLLWGDEIECIVVSMDDKSKKARVSLRQEDILNALGKYEETFRHVDFGPVYAALRNETCPKKIDAILSEVAKNPADYVERIGGNSNKDTIEITSSTKPHAQNAVPTFHPEYGRYMLESTPGAPYGSTLKDFTFVEYNMRLRRKIIENHLLPNELPLTITNFFRLGTPGFTDPEVEANGAISRSFFLPDDVINTHVRFPTLTANIRQRRGRKVAMNVPIFFDKNTIKPFHDPTVPWDRNLFPEDANARDGAALDNHIYMDSMGFGMGCCCLQITFQAKSCDEARLLYDQLTPITPLMLALSAGTPAFRGYLADQDCRWNVIAGAVDDRTEEEMKTVPKSRYDSVDLYISNDKRNLPEYNDVPVVINQDCYDKLIKDCIDERLAKHMAHIFSRDPLVIFSDSILQDNSVSNAHFENLNSTNWQSMRFKPPPPGSDIGWRVEFRSMEIQITDFENAAYSIFVVMLSRAILSFNLNLYMPISLVDENMKAAHARDAIHRKKFWFRCNPFPDASTDDESGQFRQLTIDELFNGEHRENGFPGLITIVRSYLYSCNPDAKTICLIERYIRLISQRANGQCLTAASWIRNFITTHPSYKQDSVVNDEINYDLIRRIAKIVDGDYDDTLLGKCS | soluble
